According to patent publication US20240269230A1:
Ends that are not written are not given here.

Legend:
[1] = target: T1, kappa opioid receptor (the kOR), mouse, with C-terminal GFP (the kOR-EGFP) (mouse), P33534
T1 chain: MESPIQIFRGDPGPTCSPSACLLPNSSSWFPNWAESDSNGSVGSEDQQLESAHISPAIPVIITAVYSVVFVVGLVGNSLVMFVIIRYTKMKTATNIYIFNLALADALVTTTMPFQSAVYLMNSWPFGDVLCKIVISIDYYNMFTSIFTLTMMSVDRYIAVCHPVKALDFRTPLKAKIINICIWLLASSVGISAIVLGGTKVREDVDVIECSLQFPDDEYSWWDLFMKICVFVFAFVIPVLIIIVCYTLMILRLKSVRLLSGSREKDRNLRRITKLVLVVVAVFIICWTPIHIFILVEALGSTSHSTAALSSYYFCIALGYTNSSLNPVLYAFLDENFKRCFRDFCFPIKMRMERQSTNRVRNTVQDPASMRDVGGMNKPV

[2] = target: T1, kappa opioid receptor (the kOR), mouse, …; assay: cell-based or functional assay

B1: [T20K]-kalata B1 (peptide)
peptide: GLPVCGETCVGGTCNTPGCKCSWPVCTRN
modifications: not fully specified (bridges); ends and bridges not checked
With B1 the Ki [1] was 2.7 µM, the cAMP assay EC50 (HEK293 cells stably expressing the kOR) [2] was 17 µM and the leftward shift in the cAMP potency of the orthosteric ligand U50,488 [2] was 9 fold.
